# According to patent US20050196797A1 (JAPAN SCIENCE AND TECHNOLOGY AGENCY, published 2005):
# Target: human SMG-1 (hSMG-1) (human, UniProt Q96Q15 1-3661, limits assumed)
# Assay: cell-based or functional assay
# Sequence of human SMG-1 (hSMG-1) (Q96Q15 whole entry): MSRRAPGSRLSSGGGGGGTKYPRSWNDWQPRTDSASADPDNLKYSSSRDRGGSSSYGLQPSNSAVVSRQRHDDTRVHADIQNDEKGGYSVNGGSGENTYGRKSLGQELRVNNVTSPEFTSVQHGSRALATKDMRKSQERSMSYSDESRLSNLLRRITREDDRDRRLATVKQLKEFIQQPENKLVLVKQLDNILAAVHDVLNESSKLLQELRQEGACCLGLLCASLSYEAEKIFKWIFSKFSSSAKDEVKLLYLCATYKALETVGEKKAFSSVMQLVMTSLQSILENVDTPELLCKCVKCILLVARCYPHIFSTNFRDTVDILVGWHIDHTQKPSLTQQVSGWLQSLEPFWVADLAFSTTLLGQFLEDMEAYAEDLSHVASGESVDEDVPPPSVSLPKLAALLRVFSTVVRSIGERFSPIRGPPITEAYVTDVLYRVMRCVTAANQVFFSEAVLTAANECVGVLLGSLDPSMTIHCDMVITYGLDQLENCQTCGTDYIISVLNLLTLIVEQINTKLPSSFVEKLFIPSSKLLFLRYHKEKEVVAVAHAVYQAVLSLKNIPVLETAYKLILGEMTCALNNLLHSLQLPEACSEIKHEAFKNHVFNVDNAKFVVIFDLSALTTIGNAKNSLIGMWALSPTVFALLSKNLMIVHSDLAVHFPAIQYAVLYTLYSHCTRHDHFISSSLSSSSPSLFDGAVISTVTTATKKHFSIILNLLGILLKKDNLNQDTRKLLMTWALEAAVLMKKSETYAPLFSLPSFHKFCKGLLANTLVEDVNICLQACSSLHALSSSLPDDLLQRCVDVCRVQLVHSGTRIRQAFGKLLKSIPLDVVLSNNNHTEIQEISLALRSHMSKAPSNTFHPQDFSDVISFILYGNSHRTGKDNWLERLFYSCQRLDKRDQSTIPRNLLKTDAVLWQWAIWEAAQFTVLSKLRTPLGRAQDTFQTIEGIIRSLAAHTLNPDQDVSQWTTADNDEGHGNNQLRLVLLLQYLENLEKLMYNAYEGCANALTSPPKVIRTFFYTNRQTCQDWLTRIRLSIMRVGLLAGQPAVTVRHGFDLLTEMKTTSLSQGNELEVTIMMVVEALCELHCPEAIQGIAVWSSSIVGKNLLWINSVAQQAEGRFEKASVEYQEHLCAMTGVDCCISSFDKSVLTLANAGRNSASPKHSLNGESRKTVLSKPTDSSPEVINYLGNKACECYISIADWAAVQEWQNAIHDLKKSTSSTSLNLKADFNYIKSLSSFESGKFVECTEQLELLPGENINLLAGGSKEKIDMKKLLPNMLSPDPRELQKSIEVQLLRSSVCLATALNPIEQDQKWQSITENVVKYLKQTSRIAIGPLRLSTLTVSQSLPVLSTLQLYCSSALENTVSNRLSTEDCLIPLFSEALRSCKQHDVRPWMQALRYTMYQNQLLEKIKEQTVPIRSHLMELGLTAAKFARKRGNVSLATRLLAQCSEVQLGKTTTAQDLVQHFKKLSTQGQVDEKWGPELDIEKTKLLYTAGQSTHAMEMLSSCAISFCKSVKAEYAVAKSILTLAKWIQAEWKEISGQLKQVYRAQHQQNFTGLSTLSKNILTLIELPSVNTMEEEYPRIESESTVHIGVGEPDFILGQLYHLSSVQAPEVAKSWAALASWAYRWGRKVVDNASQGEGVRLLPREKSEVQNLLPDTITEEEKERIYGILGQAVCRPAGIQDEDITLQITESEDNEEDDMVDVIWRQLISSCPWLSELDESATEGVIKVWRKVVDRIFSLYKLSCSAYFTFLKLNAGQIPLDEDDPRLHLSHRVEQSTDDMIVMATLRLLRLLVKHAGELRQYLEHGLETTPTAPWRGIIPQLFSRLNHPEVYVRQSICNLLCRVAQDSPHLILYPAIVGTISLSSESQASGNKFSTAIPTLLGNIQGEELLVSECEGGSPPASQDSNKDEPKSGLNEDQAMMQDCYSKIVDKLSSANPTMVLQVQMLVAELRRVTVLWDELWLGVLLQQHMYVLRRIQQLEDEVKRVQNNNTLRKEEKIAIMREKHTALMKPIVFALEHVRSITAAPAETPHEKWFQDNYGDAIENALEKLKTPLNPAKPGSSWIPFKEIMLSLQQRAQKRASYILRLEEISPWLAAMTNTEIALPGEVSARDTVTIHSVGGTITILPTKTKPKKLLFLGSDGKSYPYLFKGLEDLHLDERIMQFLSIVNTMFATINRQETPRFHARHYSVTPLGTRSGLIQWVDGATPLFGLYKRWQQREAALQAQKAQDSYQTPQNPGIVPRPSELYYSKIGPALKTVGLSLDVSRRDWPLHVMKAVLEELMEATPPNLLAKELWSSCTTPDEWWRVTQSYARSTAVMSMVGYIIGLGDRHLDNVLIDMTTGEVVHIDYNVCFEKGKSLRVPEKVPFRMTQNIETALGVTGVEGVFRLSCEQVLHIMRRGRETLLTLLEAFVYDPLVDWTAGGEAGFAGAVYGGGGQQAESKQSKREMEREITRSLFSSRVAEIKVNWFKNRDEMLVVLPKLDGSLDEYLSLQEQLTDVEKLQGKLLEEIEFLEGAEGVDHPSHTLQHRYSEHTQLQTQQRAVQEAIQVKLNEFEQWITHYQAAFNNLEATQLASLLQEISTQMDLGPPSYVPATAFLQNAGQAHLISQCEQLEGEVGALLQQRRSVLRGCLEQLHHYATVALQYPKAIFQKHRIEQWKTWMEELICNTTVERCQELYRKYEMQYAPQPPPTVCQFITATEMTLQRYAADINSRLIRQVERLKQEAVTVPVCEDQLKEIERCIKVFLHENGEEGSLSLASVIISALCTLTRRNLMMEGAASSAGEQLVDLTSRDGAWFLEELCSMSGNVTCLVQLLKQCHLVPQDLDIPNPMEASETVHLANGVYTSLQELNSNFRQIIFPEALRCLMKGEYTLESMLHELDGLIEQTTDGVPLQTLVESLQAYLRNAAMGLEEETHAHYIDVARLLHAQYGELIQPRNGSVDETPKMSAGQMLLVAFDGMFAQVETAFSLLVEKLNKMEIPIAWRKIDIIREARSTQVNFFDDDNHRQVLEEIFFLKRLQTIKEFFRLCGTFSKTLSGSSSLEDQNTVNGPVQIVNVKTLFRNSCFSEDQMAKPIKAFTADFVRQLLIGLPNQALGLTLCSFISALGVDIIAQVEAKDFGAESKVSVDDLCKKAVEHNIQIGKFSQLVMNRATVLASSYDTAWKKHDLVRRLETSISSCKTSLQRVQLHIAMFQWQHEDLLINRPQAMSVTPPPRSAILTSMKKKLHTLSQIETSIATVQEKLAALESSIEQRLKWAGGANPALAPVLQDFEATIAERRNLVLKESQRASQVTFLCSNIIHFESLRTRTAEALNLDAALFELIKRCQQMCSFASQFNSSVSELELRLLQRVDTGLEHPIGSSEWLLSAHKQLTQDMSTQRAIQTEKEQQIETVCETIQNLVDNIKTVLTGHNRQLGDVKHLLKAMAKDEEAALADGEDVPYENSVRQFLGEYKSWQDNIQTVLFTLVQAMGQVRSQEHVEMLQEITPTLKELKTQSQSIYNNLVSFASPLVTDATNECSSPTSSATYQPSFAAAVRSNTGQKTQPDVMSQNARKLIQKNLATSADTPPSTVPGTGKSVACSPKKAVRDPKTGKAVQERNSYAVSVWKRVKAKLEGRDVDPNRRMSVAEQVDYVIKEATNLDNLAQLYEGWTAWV
binder,measurement,value
SMGBP1 (SMG Binding Protein 1) (other) MAGPVSLRDLLMGASAWMGSESPGGSPTEGGGSAAGGPEPPWREDEICVVGIFGKTALRLNSEKFSLVNTVCDRQVFPLFRHQDPGDPGPGIRTEAGAVGEAGGAEDPGAAAGGSVRGSGAVAEGNRTEAGSQDYSLLQAYYSQESKVLYLLLTSICDNSQLLRACRALQSGEAGGGLSLPHAEAHEFWKHQEKLQCLSLLYLFSVCHILLLVHPTCSFDITYDRVFRALDGLRQKVLPLLKTAIKDCPVGKDWKLNCRPCPPRLLFLFQLNGALKVVPPRNQDPAHPDKPKKHSPKRRLQHALEDQIYRIFRKSRVLTNQSINCLFTVPANQAFVYIVPGSQEEDPVGMLLDQLRSHCTVKDPESLLVPAPLSGPRRYQVMRQHSRQQLSFHIDSSSSSSSGQLVDFTLWEFLWQHVELVLSKKGFDDSVGRNPQPSHFELPTYQKWISAASKLYEVAIDGKEEDLGSPTGELTSKILSSIKVLEGFLDIDTKFSENRCQKALPMAHSAYQSNLPHNYTMTVHKNQLAQALRVYSQHARGPAFHKYAMQLHEDCYKFWSNGHQLCEERSLTDQHCVHKFHSLPKSGEKPEADRNPPVLYHNSRARSTGACNCGRKQAPRDDPFDIKAANYDFYQLLEEKCCGKLDHINFPVFEPSTPDPAPAKNESSPAPPDSDADKLKEKEPQTQGESTSLSLALSLGQSTDSLGTYPADPQAGGDNPEVHGQVEVKTEKRPNFVDRQASTVEYLPGMLHSNCPKGLLPKFSSWSLVKLGPAKSYNFHTGLDQQGFIPGTNYLMPWDIVIRTRAEDEGDLDTNSWPAPNKAIPGKRSAVVMGRGRRRDDIARAFVGFEYEDSRGRRFMCSGPDKVMKVMGSGPKESALKALNSDMPLYILSSSQGRGLKPHYAQLMRLFVVVPDAPLQIILMPQVQPGPPPCPVFYPEKQEITLPPDGLWVLRFPYAYVTERGPCFPPKENVQLMSYKVLRGVLKAVTQ,"phosphorylation of hUPF1 (P-hUPF1/hUPF1) in HeLa TetOff cells transfected with siRNA against p130, relative to control siRNA",~40%
